Measured values published in patent US20250108100A1, “C-TERMINAL FRAGMENT OF APOLIPOPROTEIN E AND APPLICATION THEREOF IN INHIBITING y-SECRETASE ACTIVITY” (SYNPHATEC (SHANGHAI) BIOPHARMACEUTICAL TECHNOLOGY CO., LTD., priority 2022, published 2025).
Substitutions are numbered along the chain they refer to. Numbers in names are those of the source. Entries after “also recorded” stand apart in the source; their conditions may differ.

B1: monkey CT: SEQ ID NO: 62; non-human primate-derived ApoE CT, R36S+T74A+A76T versus human ApoE CT (protein)
chain: ARMEEMGSRTRDRLDEVKEQVAEVRAKLEEQAQQISLQAEAFQARLKSWFEPLVEDMQRQWAGLVEKVQAAVGASTAPVPSDNH
B2: CT A36/74: SEQ ID NO: 52; ApoE CT mutant R36A + T74A (R251A + T289A of SEQ ID NO: 12) (protein)
chain: B1 chain with S36A, T76A
B3: CT A80: SEQ ID NO: 51; ApoE CT mutant P80A (P295A of SEQ ID NO: 12) (protein)
chain: B1 chain with S36R, A74T, T76A, P80A
B4: CT A72: SEQ ID NO: 50; ApoE CT mutant V72A (V287A of SEQ ID NO: 12) (protein)
chain: B1 chain with S36R, V72A, A74T, T76A
B5: ApoE2-M3F: SEQ ID NO: 60; ApoE2 with 3×FLAG added between residues 215 and 216 (protein)
chain: KVEQAVETEPEPELRQQTEWQSGQRWELALGRFWDYLRWVQTLSEQVQEELLSSQVTQELRALMDETMKELKAYKSELEEQLTPVAEETRARLSKELQAAQARLGADMEDVCGRLVQYRGEVQAMLGQSTEELRVRLASHLRKLRKRLLRDADDLQKCLAVYQAGAREGAERGLSAIRERLGPLVEQGRVRAATVGSLAGQPLQERAQAWGERLRGSGGSDYKDHDGDYKDHDIDYKDDDDKSGSGSARMEEMGSRTRDRLDEVKEQVAEVRAKLEEQAQQIRLQAEAFQARLKSWFEPLVEDMQRQWAGLVEKVQAAVGTSAAPVPSDNH
modifications: 3xFLAG inserted between residues 215 and 216
B6: CT E20: SEQ ID NO: 55; multiple site mutant of ApoE CT (protein)
chain: B1 chain with Q20A, S36R, E40A, Q60A, A74T, T76A, P80A
B7: CT A65: SEQ ID NO: 49; ApoE CT mutant V65A (V280A of SEQ ID NO: 12) (protein)
chain: B1 chain with S36R, V65A, A74T, T76A
B8: CT LM5: SEQ ID NO: 59; ApoE CT mutant E23A + V24A + R25A + K27A (protein)
chain: B1 chain with E23A, V24A, R25A, K27A, S36R, A74T, T76A
B9: CT R10: SEQ ID NO: 57; ApoE CT mutant S75A + P78A + V79A + P80A + S81A + D82A + N83A + H84A (protein)
chain: ARMEEMGSRTRDRLDEVKEQVAEVRAKLEEQAQQIRLQAEAFQARLKSWFEPLVEDMQRQWAGLVEKVQAAVGTAAAAAAAAAA
B10: CT A40: SEQ ID NO: 47; ApoE CT mutant E40A (E255A of SEQ ID NO: 12); table prints CT A20 (protein)
chain: B1 chain with S36R, E40A, A74T, T76A
B11: CT LF5: SEQ ID NO: 58; ApoE CT mutant R11A + D12A + R13A + L14A + D15A (protein)
chain: B1 chain with R11A, D12A, R13A, L14A, D15A, S36R, A74T, T76A
B12: CT A20: SEQ ID NO: 46; ApoE CT mutant Q20A (Q235A of SEQ ID NO: 12) (protein)
chain: B1 chain with Q20A, S36R, A74T, T76A
B13: CT E5: SEQ ID NO: 53; multiple site mutant of ApoE CT (protein)
chain: ARMEEMGSRARDRLAEVKEAVAEVAAKLEAQAQQARLQAAAFQAALKSWAEPLVADMQRAWAGLAEKVQAAVGTAAAPVASDNH
B14: CT E10: SEQ ID NO: 54; multiple site mutant of ApoE CT (protein)
chain: B13 chain with A15D, A25R, A35I, A45R, A55E, A65V, A75S
B15: CT F5: SEQ ID NO: 56; multiple site mutant of ApoE CT (protein)
chain: B1 chain with R2A, M3A, E4A, E5A, S36R, A74T, T76A
B16: CT A60: SEQ ID NO: 48; ApoE CT mutant Q60A (Q275A of SEQ ID NO: 12) (protein)
chain: B1 chain with S36R, Q60A, A74T, T76A
B17: ApoE2 MD10: SEQ ID NO: 61; ApoE2 with amino acid residues at positions 244 to 254 deleted (protein)
chain: KVEQAVETEPEPELRQQTEWQSGQRWELALGRFWDYLRWVQTLSEQVQEELLSSQVTQELRALMDETMKELKAYKSELEEQLTPVAEETRARLSKELQAAQARLGADMEDVCGRLVQYRGEVQAMLGQSTEELRVRLASHLRKLRKRLLRDADDLQKCLAVYQAGAREGAERGLSAIRERLGPLVEQGRVRAATVGSLAGQPLQERAQAWGERLRARMEEMGSRTRDRLDEVKEQVAEVRAKLEAFQARLKSWFEPLVEDMQRQWAGLVEKVQAAVGTSAAPVPSDNH

These molecules were tested on human APP co-expressed in HEK 293T cells (assay: α-CTF produced by APP co-expressed in HEK 293T cells (Western blot)). Conditions: ApoE CT positive control.
Assay type: cell-based
Method: • a) A plasmid expressing the target protein in mammalian cells was constructed, and the protein expression promoter is CAG. • b) The target protein was expressed in HEK 293T cell line. Cells were subcultured one day before transfection, and transfection was performed when the degree of cell adhesion reached 70%-80%. The transfection reagent was lipofectamine2000 (ThermoFisher). • c) 4-6 hours post transfection, the medium were replaced with fresh cell culture medium. • d) 36-48 hours post transfection, the cells were lysed (10% 1M tris-HCl (pH=6.8), 4% SDS, 20% glycerol, 0.01% bromophenol blue), and the protein samples were collected and used for Western blot or stored in a −80° C. freezer. • e) Polyacrylamide gel electrophoresis. Before protein loading, the protein was boiled at 98° C. for 10 min, and then centrifuged at 12000 rpm for 10 min. Electrophoresis: 80V for the upper stacking gel; 120V for the lower separating gel. • f) Protein transfer. The filter paper was soaked in the electrophoresis solution before use, and the PVDF membrane was put in methanol for 10s to activate, and the gel after electrophoresis was taken out from the electrophoresis tank, put in the order of filter paper—PVD membrane—gel-filter paper from bottom to top, and they were put into the transfer instrument, with transferring in constant current at 0.1 A for 70 min. • g) Blocking and antibody incubation: the transferred PVDF membrane was placed in 5% BSA/TBST blocking solution, and blocked on a shaker at room temperature for 1 hour. The primary antibody was used to incubate at 4° C. overnight on a shaker (12-16 h); 1×TBST was used to wash three times, once every 10 minutes; the secondary antibody was used to incubate, shaked at room temperature for 1-2 h; 1×TBST was used to wash three times, once every 10 minutes. • h) Imaging by development: development was performed with ECL chemiluminescence hypersensitive chromogenic reagent.
Plasmids were transfected in HEK 293T or N2A cells for 36-48 hours and then lysed in cell lysis buffer [10% 1M tris-HCl (pH=6.8), 4% SDS, 20% glycerol, 0.01% bromophenol blue]. Lysates were shaken at room temperature for 10 min, then boiled for 10 min, and centrifuged at 12,000×g for 10 min. Proteins were run on 8% or 12% Tris-glycine SDS-PAGE and transferred to PVDF membranes (Life Technologies). Samples were incubated overnight at 4° C. with primary antibody diluted in 5% BSA buffer (in 1×TBST). After washing 3 times with 1×TBST, they were incubated with secondary antibody diluted in 5% BSA buffer (in 1×TBST) for 2 hours at room temperature. Finally, after washing 3 times with 1×TBST, the signal was detected by ECL Western blotting substrate (Solarbio, PE0010).
Data were analyzed by GraphPad Prism software (v6) using unpaired, paired, or one-sample t-tests. Aβ40 and Aβ42 levels were normalized to the corresponding GFP controls. α-CTF levels were normalized to FL-APP and corresponding GFP controls. All data are represented as mean±SEM. Statistical significance was defined as p<0.05. One, two, three and four stars (*) in the graph indicate p-values <0.05, <0.01, <0.001 and <0.0001, respectively.

Row | Molecule | degree of α-CTF increase compared to ApoE CT
1 | B1 | identical to that of human ApoE CT
2 | B2 | even higher
3 | B3 | even higher
4 | B4 | even higher

Same assay, conditions: Western blot, vs GFP control

Row | Molecule | α-CTF produced by co-expressed APP
5 | B5 | significantly increases α-CTF; also recorded: increased α-CTF
6 | B6 | can no longer increase α-CTF; also recorded: failed to increase
7 | B1 | also increase α-CTF
8 | B7 | significantly increased α-CTF
9 | B2 | significantly increased α-CTF
10 | B8 | still significantly increase α-CTF; also recorded: can also significantly increase α-CTF
11 | B3 | significantly increased α-CTF
12 | B4 | significantly increased α-CTF
13 | B9 | still significantly increase α-CTF; also recorded: can also significantly increase α-CTF
14 | B10 | significantly increased α-CTF
15 | B11 | still significantly increase α-CTF; also recorded: can also significantly increase α-CTF
16 | B12 | significantly increased α-CTF
17 | B13 | can no longer increase α-CTF; also recorded: failed to increase
18 | B14 | can no longer increase α-CTF; also recorded: failed to increase
19 | B15 | can no longer increase α-CTF; also recorded: failed to increase
20 | B16 | significantly increased α-CTF
21 | B17 | significantly increases α-CTF; also recorded: also increased α-CTF

Same assay, conditions: Western blot, vs GFP control, listed as ApoE CT from a non-human primate

Row | Molecule | α-CTF produced by co-expressed APP
22 | B1 | significantly increased α-CTF
